The nature of the data set: yeast display, Sf9 membrane polyspecificity reagent, FACS + sequencing; frameworks hold sequencing errors. The method, boiled down: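 Genes from sorted yeast were amplified by colony PCR, read by MiSeq 2 × 250 sequencing and filtered on CDR length. These cells carried a synthetic nanobody library in Saccharomyces cerevisiae BJ5465 and were sorted by FACS into low and high (top ~1%) gates on anti-HA and streptavidin fluorescence. Polyreactivity is labelled according to the gate of origin.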
Turning to “QVQLLESGGGLVQAGGSLRLSCAASGRIFVVNAMGWYRQAPGKERELVATITRGASTYADSVKGRFTISRDNAKNTVYLQMNSLKPEDTAVYYCAAAKRPQVVRYDWTKLEYWGQGTQVTVSS”, the “polyreactivity (PSR sort gate)” value is on record as “high polyreactivity”.
Next, “QVQLVESGGGLGQAGGSLRLSCAASGSIIPWNVMGWSRQARGKEREFVAGITFRVGSTYYADSVKGRFTISRDNAKNTVYLQMNSLKPEDTAVYYCAALIRAVDRYTYRYGYWGQGTQVTVSS”: “high polyreactivity”; “QVQLVESGGGLVQAGGSLRLSCAASGFTFYRNAMGWYRQAPGKERELVAAITLSGTSTYYADSVMGRFTISRDNAKNTVYLQMISLIPEDTAVYYWNTVGYRGPSNSRFYYWGQGTQVTLSS”: “high polyreactivity”.
Next, “QVHLVESGGGLVQAGGSLRLSCAASGRTIKRYAMGWYRQAPGKERELVATISRSGSSTYYADSVKGRFTISRANAMNTVYLQMNSLKPEDTAVYYCNAYVPDIWVNGYDSWGQGTQVTVSS”: “high polyreactivity”.
As for “QVQLVESGGGLVQAGGSLRLSCAASGRIFYSYAMGWYRQAPGKELELVAAIDESDGSTYYADSVKGRFTISRDNAKNTVYLQMNSLKPEDTAVYYCAADSLLVLFDYWGQGTQVTVSS”, the “polyreactivity (PSR sort gate)” value was “low polyreactivity”.
To “QVQLVESGGGLVQAGGSLRLSCAASGSIFAGYAMGWYRQAPGKERELVAAITSSGGSTYYADSVKGRFTISRDNAKNTVYLQMTSLKPEDTAVYYCAKDKLILYRVGSDYWGQGTQVTVSS” belongs “low polyreactivity”; to “QVQLVESGVGLVQAGGSLRLSCAASGFIFYYYAMGWYRQAPGKERELVAAISTDGGSTYYADSVKGRFTISRDNAKNTVYLQMNSLKPEDTAVYYCNAPYYGWGYWPLEYIRYEYWGQGTQVTVST”, “low polyreactivity”; to “QGQHAESGGGLVQAGGSLRLTCAASGFTFVYYPMGWYRQATGKERELVAAISGRGGSTYYADSVKGRFTISRDNAKNTVFLQMNSMKPEDTAVYYCAADAYESGNWEANGYWGQGTQVSVSS”, “low polyreactivity”.
To “QVQLVESRGGLVQAGGSLRLSCAASGSIFSWYTMGWSRQAPGKERELVARITTSGGTPRYADSVKGRFTISRDNAKNTVYLQMNSLKPEDTAVYYCAADRSPYWRGYGRYNYWGQGTQVTVSS” belongs “high polyreactivity”; to “QVQLVESGGGLVQAGGSLRLRCAASGFIFGRYTMGWYRQAPGKERELVAAISSRGGSTYYADSVKGRFTISRDNAKNTVYLQMNSLKPEDTAVYYCAADEIYCYDYWGQGTQVTVSS”, “high polyreactivity”; to “QVQLVESGGGLVQAGGSLRLSCAASGSTFPKYAMGWYRQAPGKERELVASISVTTGSTYYADSVKGRFTISRDNAKNTVYLQMNSLKPEDTAVYYCAVGRTVAHRFIAGDYWGQGTQVTVSS”, “high polyreactivity”.
To “QDQLVESGGGLDQAGRSLRLSCAASGFTYRPYAMGWYRQEPGKERELVAAISSIGSTYYADSVKGRFTISRDNAKYTVYLPMNSLNPEDTAVYYCIADSYVRSTIFDHWGQGTQVTVSS” belongs “low polyreactivity”; to “QVQLVESGGGLVQAGGSLRLSCAASGSTFYGYAMGWYRQAPGKERELVAAISSNGDSTYYADSVKGRFTISRDNAKNSVYLQMNILKPEDTAVYYCATDPEGSTGGGYEFWGQGTQVTVSS”, “low polyreactivity”.
Turning to “QVQLVESGGGLVQAGGSLRLSCAASGRTFRLNAMGWYRQAPGKERELVAAITSSGGSTYYADSVKGRFTISRDNAKNTVYLQLNSLKPEDTAVYYCARRQGYGVRSIRWGDYWGQGTQVTVSS”, the “polyreactivity (PSR sort gate)” value is listed as “high polyreactivity”.
Next, “QVQLVESGGGLVQAGGILRLSCAASGSTFAANAMGWYRQAPGKERELVAAITSSGGSTYYADSVKGRFTISRDNAKNTVYLQMNSLKPEDTAVYYCNKDIERYVRIYYSWGQGTQVTVSS”: “low polyreactivity”; “QVQLVESGGGLVQAGGSLRLSCAASGFTFVGNTMGWYRQAPGKERELVAAIRGRDGRTYYADSVKGRFTISRDNEKNTVYLQMNSLKPEDTAVYYCNVDVKYSVRSEFDYWGQGTQVTVSS”: “low polyreactivity”; “QVQLVESGGGLVEAGGSLRLSCAASGSNFPWNAMGWSIQAPGKESDLVAGISSRGGSTYYADSVKGRFTISRDNAKNTVYLQMNSLKPEDTAVYYCNAAAVRRGRLVKLDYWGQGTQVTVSS”: “high polyreactivity”.
In the case of “QVQLVESGGGLVQAGGSLRLSCAASGSIFRVYAMGWYRQAPGKERELVAAITYSSGSTYYADSVKGRFTISRDNAKNTVYLQMNSLKPEDTAVYYCAAYWSYYLREFDYWGQGTQVTVSS”, the “polyreactivity (PSR sort gate)” value is given as “high polyreactivity”.
In the case of “QDQLVESGGGLVQAGGSLRLSCAASGRTFWAYAMGWYRQAPGKEREVVASIRSSGTSTYYADSVMGRFTISRDNAKNSVYLQMNSLKPEDTAVYYCAATSGYARYYHREYWGQGTQVTVSS”, the “polyreactivity (PSR sort gate)” value was “high polyreactivity”.
Next, “QVQLLESGGGLVPSGGSLRLSCAASGLTLYTYAMGWYRQAPGKERELVAAISKNGGRTYYADSVKGRFTISRDNAKITVYLQMNSLKPEDTAVYYCADRARVGTVTFDYWGQGTQVTVSS”: “low polyreactivity”; “QVQLVESGGGLVQAGGSLRLSCAASGSTYRGYAMGWYRQAPGKEMELVAAISNRGTRTYYADSVKGRFTISRYNAKNTFYLQMNSLKPEDTAVYYFSAGNRVHRFDYWGQGTQVTVSS”: “high polyreactivity”.
To “QVQLVESGGGLVQAGGSLRLSCAATGLTFWVNAMAWYRQAPGKERELVADITRSGGITNYADSVKGRFTISRDNANNTVYLQMNSLKPEDNAVYYCNADQRVDHDDFDYWGKGTQVTVSS” belongs “low polyreactivity”; to “QVQLVESGGGLVQAGGSLRLSCAASGRIFHPYAMGWYRPAPGKERELVAAITNSGGITYADSVKGRFTISRDNAKNTVYLQMNSLKPEDTSVYYCNTATNRFHYKYRKPYDYWGQGTQVTVSS”, “low polyreactivity”.
Next, “QVQLVESGGGLVQAGGRLRLSCAASGFIFYYYAMGWYRQAPGKERELVAVLTESASSTYYADSVKGRFTISRDNAKNTVYLQMNSLKPEDTAVYYCNADFWPYTGKYDYWGQGTQVTVSS”: “low polyreactivity”; “QVQLVESGGGLVQAGGSLRLSCAASGFTFQFYAMGWYRQAPGKERELVAAITWSGGSTYYADSVKGRFTISRDNAKNSVYLQLKSLKPEDTAVYFCAKDRRTYLSYIYDYWGQGTQVTVSS”: “high polyreactivity”; “QVQLVESGGGLDQAGVRLRLSCAASGRIFISYAMGWYRQAPGNDTELVARISTRGGSTYYADSVKGRFTISRDNAKNTVYLQMNSLKPDDTAVYYCAADHHFCQYPGGGNRWYYYWGQGTHVTVSS”: “high polyreactivity”.
In the case of “QVQLVESGGGLVQAGGSLRLSCAASGSTFDVYAMGWYRQAPGKERELVASISITDGSTYYADSVKGRFTISRDNAKNTVYLPMNSLKPEDTAVYYCNAQYGGSYVEYDYWGQGTQVTVSA”, the “polyreactivity (PSR sort gate)” value is recorded as “low polyreactivity”.
Next, “QVQLVESGGGLVQAGGSLRLSCAASGSTFDLYAMGWCRQAPGKEREWVAAITWSGDDTYYADSVKGRFTISRDNATNTVYLQMNSLKPEDTAVYYCAAAYAYWGQGTQVTVSS”: “low polyreactivity”; “QVQLVESGGGLVQAGGSLRLSCAASGRILYSYAMGWYRQAPGKERELVAAISSTGSTYYADSVKGRFTISRDNAKNTVYLQMNSLKPEDTAVYYCAATFYPYQVHHYYYWGKGTQVTVSS”: “low polyreactivity”.
As to “QVQLVESGGGLVQAGGSLRLSCAASGRTFYRNAMGWSRQAPGKERELVAAISSTGSTYYAESVKGRFTSSRDNAKNTVYLQMNSLKPEDTAVYYCARGVHGIFGYLGQGTQVTVSS”, the “polyreactivity (PSR sort gate)” value was “low polyreactivity”.
Next, “QVQLVESGGGLVQAGGSLRLSCAASGFTFVRYAMGWYRQAPGKERELVAAISRRGGSTYYADSVKGRFTISRDNAKNTVYLQMNSLKPEDTAVYYCNALPRPSYPFDYWGQGTQVTVSS”: “high polyreactivity”; “QVQLVESGGGLVQAGGSLRLSCAASGSIFYVNAMGWYRQAPGKERELVAAINWSGGRTYYADSVKGRFTISRDTAKNTVYLQMNSLKPEDTAVYYCAATVRRRYERYNYWGQGTQVTVSS”: “high polyreactivity”.
To “QVQLEESGGGLVQAGGSLRLSCAASGSTFAGNAMGWYRQAPGKERELVAAISGSGGITYYADSVKGRFTISRDNAKNTVYLQMNSLKAEDTAVYYCNAYYWFSRYGYWGQGTQVNVSS” belongs “high polyreactivity”; to “QVQLVESGGGLVQAGGSLRLSCAASGIIFVYYAMGWYRQAPGKERELVAAISTGGTRTYYADSVKGRFTISRDNAKNTVYLQMNSLKPEDTAVYYCNARGRYRKSERRAFDYWGQGTQVTVSS”, “high polyreactivity”; to “QVQLVESGGGLVQAGVSLRLSCAASGRTFRGYAMGWYRQAPGKERELVAAISSGGSTYYADSVKWRFTISRDNSKNTVYLQMNSLKPEDTAVYYCARAVGNYRTLEFDYWGQGTHVTVSS”, “low polyreactivity”.
Next, “QVQLVESGGGLVQAGGSLRLSCAASGSIFHYNAMGWYRQAPGKERELVAAITSGGSTYYADSVKGRFTISRDNAKKTVYLQMNSLKPEDTAVYYCATVFYRTRYVPYGYWGQGTQVTVSS”: “low polyreactivity”.
In the case of “QVQLVESGGGLVQAGGSLRLSCAASGIIFHFNDMGWYRQAPGKERELVAAIDSTGSTNYADSVKGRFTISRDNAKNTVYLQMNSLKPEDTAVYYCAVLNHRVDSVLTRYYYWGQGTQVTVSS”, the “polyreactivity (PSR sort gate)” value is on record as “low polyreactivity”.
Next, “QVQLVESGGGLVQAGGSLRLSSAASGSIFLYNAMGWYRQAPGKERELVAAISGSGGRTNYADSVKGRFTISRDHAKNTVYLQMNSLKPEVTAVYYCAAGYHVFRLGYARIPLYDYWGQGTQVTVSS”: “low polyreactivity”; “QVQLLESGGGLVQAGGSLRLSCAASGLIVSEYAMGWYRQAPGKERELVAAIRSDGGSTYYADSVKGRFTISRDNAKNTVYLQMNSLKPEDTAVYYCNAPYRRSAKFRRYGYDYWGQGTQVTVSS”: “high polyreactivity”; “QVQLVESGGGLVQAGGSLRLSCAASGGTFVHYTMGWYRPAPGKERELVASIRRGGSTNYADSVKGRFTISRDNAKNTVYLQMNSLKPEDTAVYYCAKRVQHYRYYYWGQGSQVTVSS”: “low polyreactivity”.
As for “QVQLVESGGGLVQAGGSLRLSCAASGITFRFYAMGWYRQPPGKERELVAAITSGGGTYYADSVKGRFTISRDNAKNTVYLQMNSLKPEDTAVYYCAAYQYNRKRHNYWGLGTQVTVSS”, the “polyreactivity (PSR sort gate)” value was “high polyreactivity”.
